Changes are numbered by the printed parent chain. Names may count otherwise.
B1: CD80-Fc-CD80_341 (Fc fusion)
chain: VIHVTKEVKEYATLSCGHNVSVEELAQTRIYWQKDKKMVLTMMSGDMNIWPEYKNRTIFDITNNLSIVILALRPSDEGTYECVVLKQEKDAFKREHLAEVRLSVKADGSGGGGSPCPPCPAPEFLGGPSVFLFPPKPKDTLMISRTPEVTCVVVDVSQEDPEVQFNWYVDGVEVHNAKTKPREEQFNSTYRVVSVLTVLHQDWLNGKEYKCKVSNKGLPSSIEKTISKAKGQPREPQVYTLPPSQEEMTKNQVSLTCLVKGFYPSDIAVEWESNGQPENNYKTTPPVLDSDGSFFLYSRLTVDKSRWQEGNVFSCSVMHEALHNHYTQKSLSLSLGGGGGSGGGGSGGGGSVIHVTKEVKEYATLSCGYNVSVEELAQTRIYWQKDKKMVLTMMSGDMNIWPEYKNRTIFDITNNLSIVILALRPSDEGTYECVVLKQEKDAFKREHLAEVRLSVKAD
notes: also called CD80_197 V11Y/E35D/Y87Q/T101R barbell
B2: CD80-Fc-CD80_339 (Fc fusion)
chain: B1 chain with T28Y, D35E, M47L, Q87Y, R101T, T379Y, D386E, M398L, Q438Y, R452T
notes: also called CD80_185 V11Y/T28Y/M47L barbell
B3: CD80-Fc-CD80_338 (Fc fusion)
chain: VIHVTKEVKGWATLSCGHNVSVEELAQYRIYWQKEKKMVLTMMSGDLNIWPEYKNRTIFDITNNLSIVILALRPSDEGTYECVVLKYEKDAFKREHLAEVTLSVKADGSGGGGSDKTHTCPPCPAPEAEGAPSVFLFPPKPKDTLMISRTPEVTCVVVDVSHEDPEVKFNWYVDGVEVHNAKTKPREEQYNSTYRVVSVLTVLHQDWLNGKEYKCKVSNKALPAPIEKTISKAKGQPREPQVYTLPPSRDELTKNQVSLTCLVKGFYPSDIAVEWESNGQPENNYKTTPPVLDSDGSFFLYSKLTVDKSRWQQGNVFSCSVMHEALHNHYTQKSLSLSPGGGGGSGGGGSGGGGSVIHVTKEVKGWATLSCGYNVSVEELAQYRIYWQKEKKMVLTMMSGDLNIWPEYKNRTIFDITNNLSIVILALRPSDEGTYECVVLKYEKDAFKREHLAEVTLSVKAD
B4: CD80-Fc-CD80_338 (CD80_180 E10G/V11W/T28Y/M47L, IgG1 Fc) (Fc fusion)
chain: B3 chain
notes: tetravalent
B5: CD80-Fc-CD80_339 (CD80_185 V11Y/T28Y/M47L) (Fc fusion)
chain: B1 chain with T28Y, D35E, M47L, Q87Y, R101T, T379Y, D386E, M398L, Q438Y, R452T
notes: tetravalent
B6: CD80-Fc-CD80_341 (CD80_197 V11Y/E35D/Y87Q/T101R) (Fc fusion)
chain: B1 chain
notes: tetravalent

These molecules were tested against T1, human CD28 on cells (human, UniProt P10747 19-220) (assay: cell-based or functional assay).
Molecule WT CD80 ECD-Fc IgG4 (Fc fusion) has a Rel. Luminescence Units (RLU) at 2 nM, K562/OKT3/PD-L1 + Jurkat/IL-2 reporter of 2830 RLU, a Rel. Luminescence Units (RLU) at 10 nM, K562/OKT3/PD-L1 + Jurkat/IL-2 reporter of 2660 RLU and a Rel. Luminescence Units (RLU) at 50 nM, K562/OKT3/PD-L1 + Jurkat/IL-2 reporter of 2440 RLU. The Rel. Luminescence Units (RLU) at 250 nM, K562/OKT3/PD-L1 + Jurkat/IL-2 reporter was 2640 RLU. With B1 the “Fold Increase over WT at 50 nM” value was 6.42 fold, the “Rel. Luminescence Units (RLU) at 2 nM, K562/OKT3/PD-L1 + Jurkat/IL-2 reporter” value was 13100 RLU and the “Rel. Luminescence Units (RLU) at 10 nM, K562/OKT3/PD-L1 + Jurkat/IL-2 reporter” value was 16000 RLU. The “Rel. Luminescence Units (RLU) at 50 nM, K562/OKT3/PD-L1 + Jurkat/IL-2 reporter” value was 15700 RLU and the “Rel. Luminescence Units (RLU) at 250 nM, K562/OKT3/PD-L1 + Jurkat/IL-2 reporter” value was 15200 RLU.

These molecules were tested against human CTLA-4 (human) (UniProt P16410) (assay: flow cytometry on CHO/CTLA-4 cells).
Chain of human CTLA-4 (human) (P16410 36-223): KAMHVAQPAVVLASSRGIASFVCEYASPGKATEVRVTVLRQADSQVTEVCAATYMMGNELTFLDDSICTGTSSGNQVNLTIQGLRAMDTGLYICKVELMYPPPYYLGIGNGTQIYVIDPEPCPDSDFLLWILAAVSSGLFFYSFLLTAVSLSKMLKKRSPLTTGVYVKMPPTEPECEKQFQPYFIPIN
Work on “CD80_168 variant CD80 IgV-Fc (K9N, E10G, N63S, L85E) (Fc fusion)” yielded an MFI at 0.8 nM of 415 MFI, an MFI at 4 nM of 631 MFI and an MFI at 20 nM of 830 MFI. For the same molecule, the MFI at 100 nM was 3160 MFI and the fold change vs WT CD80 at 20 nM was 0 fold.

Each molecule was assayed against human CD28 (endogenously expressed on primary human T cells) (human) (UniProt P10747) (assay: flow cytometry, primary human T cells).
“CD80_196-Fc, variant CD80 IgV-Fc V11Y/M42W/E52K/T62A/L85E (Fc fusion)” gave an MFI (anti-human Fc) at 0.8 nM of 245 MFI, an MFI (anti-human Fc) at 4 nM of 247 MFI and an MFI (anti-human Fc) at 20 nM of 274 MFI. For the same molecule, the MFI (anti-human Fc) at 100 nM was 301 MFI and the fold change of MFI vs WT CD80 at 20 nM was 1.5 fold. “CD80_227-Fc, variant CD80 IgV-Fc V11W/T28H/D46Q/V68L/L85E (Fc fusion)” showed an MFI (anti-human Fc) at 0.8 nM of 193 MFI, an MFI (anti-human Fc) at 4 nM of 209 MFI and an MFI (anti-human Fc) at 20 nM of 224 MFI. For the same molecule, the MFI (anti-human Fc) at 100 nM was 283 MFI and the fold change of MFI vs WT CD80 at 20 nM was 1.2 fold. In the case of “wild-type CD80 ECD-Fc (unmodified CD80 ECD fused to IgG4 Fc) (Fc fusion)”, the MFI (anti-human Fc) at 0.8 nM is reported as 178 MFI, the MFI (anti-human Fc) at 4 nM is reported as 168 MFI and the MFI (anti-human Fc) at 20 nM is reported as 180 MFI. It also gave an MFI (anti-human Fc) at 100 nM of 184 MFI. “CD80_188-Fc, variant CD80 IgV-Fc E35D/V68L/L85E (Fc fusion)” showed an MFI (anti-human Fc) at 0.8 nM of 201 MFI, an MFI (anti-human Fc) at 4 nM of 191 MFI and an MFI (anti-human Fc) at 20 nM of 224 MFI. “CD80_181-Fc, variant CD80 IgV-Fc K9S/E10R/V11Y/M47L/A71G (Fc fusion)” showed an MFI (anti-human Fc) at 4 nM of 212 MFI and an MFI (anti-human Fc) at 100 nM of 313 MFI. “CD80_194-Fc, variant CD80 IgV-Fc V11Y/M42W/T62A (Fc fusion)” gave an MFI (anti-human Fc) at 0.8 nM of 245 MFI, an MFI (anti-human Fc) at 4 nM of 246 MFI and an MFI (anti-human Fc) at 20 nM of 262 MFI. For the same molecule, the MFI (anti-human Fc) at 100 nM was 298 MFI and the fold change of MFI vs WT CD80 at 20 nM was 1.5 fold. “CD80_201-Fc, variant CD80 IgV-Fc E10G/H18Y/T28Y/M47W/T62S (Fc fusion)” gave an MFI (anti-human Fc) at 0.8 nM of 199 MFI, an MFI (anti-human Fc) at 4 nM of 201 MFI and an MFI (anti-human Fc) at 20 nM of 254 MFI. With “CD80_223-Fc, variant CD80 IgV-Fc E10S/V68M/Y87P (Fc fusion)” the MFI (anti-human Fc) at 0.8 nM was 190 MFI, the MFI (anti-human Fc) at 4 nM was 195 MFI and the MFI (anti-human Fc) at 20 nM was 223 MFI. The MFI (anti-human Fc) at 100 nM was 318 MFI and the fold change of MFI vs WT CD80 at 20 nM was 1.2 fold.

Each molecule was assayed against T2, human CTLA-4 on CHO cells (human, UniProt P16410 36-223) (assay: flow cytometry, CHO/CTLA-4 cells).
T2 construct: whole, on cells; also called CHO/CTLA-4
T2 sequence (P16410 36-223): as above
Protocol: (§1) Binding affinity to CD28 was determined using primary human T cells which endogenously express CD28. Binding to PD-L1 was determined using SCC152 cells transduced with human PD-L1. Binding to CTLA-4 was measured using Chinese hamster ovary (CHO) cells stably transduced to express human CTLA-4.
(§2) For staining and analysis by flow cytometry, 75,000 human T cells, SCC152/PD-L1 cells, or CHO/CTLA-4 cells were plated in 96-well round-bottom plates. Cells were spun down and resuspended in staining buffer (PBS (phosphate buffered saline), 1% BSA (bovine serum albumin), 1 mM EDTA, and 0.1% sodium azide) for 20 minutes to block non-specific binding. Afterwards, cells were centrifuged, stain buffer aspirated, and then resuspended in 50 μL of a 1:5 serial dilution of each CD80-Fc candidate variant starting at 100 nM ending at 0.8 nM. Primary staining was performed on ice for 60 minutes, before washing cells in […] staining buffer three times. PE-conjugated anti-human Fc (Jackson ImmunoResearch, USA) was diluted 1:250 in 50 μL staining buffer and added to cells and incubated another 30 minutes at 4° C. Cells were washed two times in 150 μL stain buffer and then fixed in 2% formaldehyde/PBS for 5 minutes at room temperature. Samples were analyzed CytoFLEX LX flow cytometer (Beckman Coulter, USA). Median Fluorescence Intensity (MFI) was calculated for each cell type using the CytExpert software from Beckman Coulter.
(§3) Binding assays were carried out to assess the specificity and affinity of multivalent proteins to cell-expressed CTLA-4, CD28, and PD-L1 counter structures.
B2 was tested, and the “Anti-Human Fc (MFI) at 0.8 nM” value was 210000 MFI, the “Anti-Human Fc (MFI) at 4 nM” value was 305000 MFI and the “Anti-Human Fc (MFI) at 20 nM” value was 322000 MFI. The “Anti-Human Fc (MFI) at 100 nM” value was 320000 MFI. With B1 the “Anti-Human Fc (MFI) at 0.8 nM” value was 206000 MFI, the “Anti-Human Fc (MFI) at 4 nM” value was 280000 MFI and the “Anti-Human Fc (MFI) at 20 nM” value was 297000 MFI. For the same molecule, the “Anti-Human Fc (MFI) at 100 nM” value was 282000 MFI and the “Fold change vs WT CD80 @20 nM” value was 0.36 fold. B3 was tested, and the “Anti-Human Fc (MFI) at 0.8 nM” value was 367000 MFI, the “Anti-Human Fc (MFI) at 4 nM” value was 439000 MFI and the “Anti-Human Fc (MFI) at 20 nM” value was 470000 MFI. The “Anti-Human Fc (MFI) at 100 nM” value was 511000 MFI.

These molecules were tested against T1, human CD28 on cells (assay: flow cytometry, primary human T cells).
Protocol: as §1, §2, §3
For WT CD80 ECD-Fc IgG4 (Fc fusion), the Anti-Human Fc (MFI) at 0.8 nM was 178 MFI, the Anti-Human Fc (MFI) at 4 nM was 168 MFI and the Anti-Human Fc (MFI) at 20 nM was 180 MFI. The Anti-Human Fc (MFI) at 100 nM was 184 MFI. With B2 the “Anti-Human Fc (MFI) at 0.8 nM” value was 520 MFI, the “Anti-Human Fc (MFI) at 4 nM” value was 793 MFI and the “Anti-Human Fc (MFI) at 20 nM” value was 1020 MFI. The “Anti-Human Fc (MFI) at 100 nM” value was 1380 MFI. In the case of B1, the “Anti-Human Fc (MFI) at 0.8 nM” value is reported as 676 MFI, the “Anti-Human Fc (MFI) at 4 nM” value is reported as 1070 MFI and the “Anti-Human Fc (MFI) at 20 nM” value is reported as 1410 MFI. The “Anti-Human Fc (MFI) at 100 nM” value was 1740 MFI and the “Fold change vs WT CD80 @20 nM” value was 7.8 fold. For B3, the “Anti-Human Fc (MFI) at 0.8 nM” value was 552 MFI, the “Anti-Human Fc (MFI) at 4 nM” value was 926 MFI and the “Anti-Human Fc (MFI) at 20 nM” value was 1350 MFI. For the same molecule, the “Anti-Human Fc (MFI) at 100 nM” value was 2330 MFI.

Each molecule was assayed against T3, human PD-L1 (human, UniProt Q9NZQ7 19-290) (assay: flow cytometry, SCC152 cells transduced with human PD-L1, anti-human Fc detection).
T3 construct: whole, on cells
T3 sequence (Q9NZQ7 19-290): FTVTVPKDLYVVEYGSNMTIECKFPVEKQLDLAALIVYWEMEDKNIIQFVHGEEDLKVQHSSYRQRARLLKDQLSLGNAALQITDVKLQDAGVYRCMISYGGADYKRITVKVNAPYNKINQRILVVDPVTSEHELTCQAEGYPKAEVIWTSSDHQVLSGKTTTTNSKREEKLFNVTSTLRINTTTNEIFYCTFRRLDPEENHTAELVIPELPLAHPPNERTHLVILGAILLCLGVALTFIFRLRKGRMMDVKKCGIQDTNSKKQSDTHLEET
Protocol: as §1, §2, §3
With B4 the “Anti-Human Fc (MFI) at 0.8 nM” value was 6250 MFI, the “Anti-Human Fc (MFI) at 4 nM” value was 9300 MFI and the “Anti-Human Fc (MFI) at 20 nM” value was 11000 MFI. For the same molecule, the “Anti-Human Fc (MFI) at 100 nM” value was 12500 MFI. For B5, the “Anti-Human Fc (MFI) at 0.8 nM” value was 4180 MFI, the “Anti-Human Fc (MFI) at 4 nM” value was 6180 MFI and the “Anti-Human Fc (MFI) at 20 nM” value was 7120 MFI. For the same molecule, the “Anti-Human Fc (MFI) at 100 nM” value was 8090 MFI. With B6 the “Anti-Human Fc (MFI) at 0.8 nM” value was 4750 MFI, the “Anti-Human Fc (MFI) at 4 nM” value was 6410 MFI and the “Anti-Human Fc (MFI) at 20 nM” value was 7100 MFI. For the same molecule, the “Anti-Human Fc (MFI) at 100 nM” value was 7810 MFI.

Each molecule was assayed against T3, human PD-L1 (assay: flow cytometry, SCC152 cells transduced with human PD-L1; MFI against WT CD80 ECD-Fc).
Protocol: as §1, §2, §3
B4 was tested, and the “Fold change vs WT CD80 @20 nM” value was 16.2 fold. With B5 the “Fold change vs WT CD80 @20 nM” value was 10.4 fold. B6 was tested, and the “Fold change vs WT CD80 @20 nM” value was 10.4 fold.

— patent US20250243260A1 (ALPINE IMMUNE SCIENCES, published 2025)
